Measured values published in patent publication US20180327503A1 (RINAT NEUROSCIENCE, published 2018).
Where a chain is given by its changes, count along the chain named. Each block holds one binder with its values, some of them ahead of it.

Key:
[1] = biological target: T1, Human IL-7R-hFc antigen (R&D systems) (human, UniProt P16871 21-239); experiment: SPR (Biacore 2000/3000), IL-7R-hFc captured on anti-human Fc, antibody as analyte
T1 construct: Bought from R&D Systems; not shown: human Fc (hFc) of the bought fusion
T1 sequence (looked up): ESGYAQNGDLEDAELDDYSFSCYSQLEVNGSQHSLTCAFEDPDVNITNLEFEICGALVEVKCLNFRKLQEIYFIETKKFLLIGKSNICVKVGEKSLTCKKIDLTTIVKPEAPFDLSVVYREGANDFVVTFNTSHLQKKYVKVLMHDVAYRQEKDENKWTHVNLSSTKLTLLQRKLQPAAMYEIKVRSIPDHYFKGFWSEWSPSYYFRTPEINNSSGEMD
Description: The affinities of antagonist IL-7R antibodies to human IL-7R were measured on a surface plasmon resonance Biacore™ 2000 or 3000 biosensor equipped with a research-grade CM5 sensor chip (Biacore™ AB, Uppsala, Sweden—now GE Healthcare). Goat polyclonal anti-human F(ab′)2 fragments (Fc specific) were amine-coupled at saturating levels onto all four flow cells using a standard N-hydroxysuccinimide/ethyldimethylaminopropyl carbodiimide (NHS/EDC) chemistry in HBS-P running buffer (from Biacore™). The buffer was switched to HBS-P containing 1 mg/mL BSA. Human IL-7R-hFc antigen (R&D systems, Minneapolis, USA) was diluted to about 30 μg/mL and captured for 3 min at 5 μL/min to give levels of about 500-1000 RU per flow cell, leaving one blank to serve as a reference channel. Fab, hIgG1, or hIgG2ΔA formats of the antibodies were injected in duplicates as a 5-membered 3-fold series starting at 2 μM and a 5-membered 4-fold series starting at 0.4 μM for 3 min at 20-50 μL/min. Dissociation was monitored for 5 min. The capture chip was regenerated after the last injection of each titration with two 30 sec pulses of 75 mM phosphoric acid or 10 mM Glycine-HCl pH 1.7. Buffer cycles provided blanks for double-referencing the binding response data, which were then fit globally to a simple reversible binding model using Biaevaluation software v.4.1 to deduce the kinetic association and dissociation rate constants, respectively kₐ and kd. Affinities were deduced from their ratio (KD=kd/kₐ).

[2] = biological target: T2, human IL-7R on human peripheral blood mononuclear cells (CD4+ gated) (human, UniProt P16871 21-459); experiment: cell-based or functional assay
T2 sequence (looked up): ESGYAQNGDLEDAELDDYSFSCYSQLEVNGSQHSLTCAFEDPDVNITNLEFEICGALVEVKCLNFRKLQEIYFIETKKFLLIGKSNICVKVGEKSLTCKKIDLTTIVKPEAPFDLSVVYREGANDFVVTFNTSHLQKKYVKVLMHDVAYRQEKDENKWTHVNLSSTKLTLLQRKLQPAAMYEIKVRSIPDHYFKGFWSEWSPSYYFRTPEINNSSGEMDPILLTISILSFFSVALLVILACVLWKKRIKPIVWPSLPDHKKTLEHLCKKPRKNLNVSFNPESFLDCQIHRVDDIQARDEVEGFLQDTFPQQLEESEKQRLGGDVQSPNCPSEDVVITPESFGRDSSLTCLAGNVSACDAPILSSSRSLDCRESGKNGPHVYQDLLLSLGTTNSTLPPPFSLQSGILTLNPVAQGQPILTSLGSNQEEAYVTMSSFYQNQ

- Kd [1]: 225 nM
- koff [1]: 0.00351 s⁻¹
- kon [1]: 15600 M⁻¹ s⁻¹
B1: P4B3 Fab (Fab, V domains shown)
VH: QVTLKESGGGLVQPGGSLRLSCAASGFTFSNYGMHWVRQAPGKGLEWVSAISGSGGSTYYADSVKGRFTISRDNSKNTVYLQMNSLRDEDTAVYYCARDISGGGMDVWGQGTTVTVSS
VL: NFMLTQPHSVSESPGKTVTISCTGSSGRIASSYVQWYQQRPGSAPTTVIYEDNQRPSGVPDRFSGSIDSSSNSASLTISGLKTEDEADYYCQSYASSSLWVFGGGTQLTVLS

- Kd [1]: 0.286 nM
- koff [1]: 0.000405 s⁻¹
- kon [1]: 1.42e+06 M⁻¹ s⁻¹
B2: C1GM (hIgG1) (antibody)
heavy: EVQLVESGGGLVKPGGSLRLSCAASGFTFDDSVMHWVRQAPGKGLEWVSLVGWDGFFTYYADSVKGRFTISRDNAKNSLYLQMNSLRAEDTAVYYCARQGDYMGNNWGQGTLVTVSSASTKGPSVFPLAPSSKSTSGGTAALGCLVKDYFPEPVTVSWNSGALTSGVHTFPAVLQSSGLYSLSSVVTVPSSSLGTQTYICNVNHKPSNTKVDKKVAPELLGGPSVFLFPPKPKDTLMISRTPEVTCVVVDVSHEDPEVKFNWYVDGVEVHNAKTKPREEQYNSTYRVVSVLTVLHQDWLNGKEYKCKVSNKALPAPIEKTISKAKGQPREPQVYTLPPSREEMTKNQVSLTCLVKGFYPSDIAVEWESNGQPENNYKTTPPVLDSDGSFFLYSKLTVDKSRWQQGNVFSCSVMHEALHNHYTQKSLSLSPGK
light: NFMLTQPHSVSESPGKTVTISCTRSSGSIDSSYVQWYQQRPGSSPTTVIYEDDQRPSGVPDRFSGSIDSSSNSASLTISGLKTEDEADYYCQSYDFHHLVFGGGTKLTVLQPKAAPSVTLFPPSSEELQANKATLVCLISDFYPGAVTVAWKADSSPVKAGVETTTPSKQSNNKYAASSYLSLTPEQWKSHRSYSCQVTHEGSTVEKTVAPTECS

- Kd [1]: 0.27 nM
- koff [1]: 0.000407 s⁻¹
- kon [1]: 1.51e+06 M⁻¹ s⁻¹
B3: C1GM-2 (hIgG2ΔA) (antibody)
heavy: EVQLVESGGGLVKPGGSLRLSCAASGFTFDDSVMHWVRQAPGKGLEWVSLVGWDGFFTYYADSVKGRFTISRDNAKNSLYLQMNSLRAEDTAVYYCARQGDYMGNNWGQGTLVTVSSASTKGPSVFPLAPCSRSTSESTAALGCLVKDYFPEPVTVSWNSGALTSGVHTFPAVLQSSGLYSLSSVVTVPSSNFGTQTYTCNVDHKPSNTKVDKTVAPPVAGPSVFLFPPKPKDTLMISRTPEVTCVVVDVSHEDPEVQFNWYVDGVEVHNAKTKPREEQFNSTFRVVSVLTVVHQDWLNGKEYKCKVSNKGLPSSIEKTISKTKGQPREPQVYTLPPSREEMTKNQVSLTCLVKGFYPSDIAVEWESNGQPENNYKTTPPMLDSDGSFFLYSKLTVDKSRWQQGNVFSCSVMHEALHNHYTQKSLSLSPGK
light: B2 light
notes: the footnote is printed with **)

- IC50 (read off the curve) [2]: ~0.1 µg/mL
B4: P2D2 (antagonist IL-7R fully human monoclonal antibody, format not stated) (antibody, V domains shown)
VH: QVNLRESGGGLVKPGGSLRLSCAASGFTFDDSVMHWVRQAPGKGLEWLSLVGWDGFFTYYADSVKGRFTISRDNTKNLLYLQMNSLRAEDTAVYYCARQGDYVFNNWGQGTLVTVSS
VL: NFMLTQPHSVSGSPGKTVTISCTRSSGSIDSSYVQWYQQRPGNSPTTVIYEDDQRPSGVPDRFSGSIDSSSNSASLTISGLVTEDEADYYCMQYDSSHLVFGGGTKLTVLC

- Kd [1]: 12 nM
- koff [1]: 0.000882 s⁻¹
- kon [1]: 71700 M⁻¹ s⁻¹
B11: P2D2 Fab (Fab, V domains shown)
VH: B4 VH
VL: B4 VL

- Kd [1]: 0.06 nM
- koff [1]: 8.08e-05 s⁻¹
- kon [1]: 1.39e+06 M⁻¹ s⁻¹
B12: HAL403b Fab (Fab, V domains shown)
VH: B4 VH with V103M, F104G
VL: B4 VL with S96F, S97H

- Kd [1]: 0.04 nM
- koff [1]: 0.000171 s⁻¹
- kon [1]: 4.85e+06 M⁻¹ s⁻¹
B13: C1GM Fab (Fab, V domains shown)
VH: B4 VH with Q1E, N3Q, R5V, L48V, T75A, L78S, V103M, F104G
VL: NFMLTQPHSVSESPGKTVTISCTRSSGSIDSSYVQWYQQRPGSSPTTVIYEDDQRPSGVPDRFSGSIDSSSNSASLTISGLKTEDEADYYCQSYDFHHLVFGGGTKLTVL

The next lines start with the binder.

B5: HAL403a Fab (Fab, V domains shown)
VH: B4 VH with V103M, F104G
VL: B4 VL with M92Q, Q93S, S96F, S97H
- Kd [1]: 0.06 nM
- koff [1]: 0.000286 s⁻¹
- kon [1]: 5.07e+06 M⁻¹ s⁻¹

B6: C2M3 (hIgG1) (antibody, V domains shown)
VH: B4 VH with Q1E, N3Q, R5V, L48V, T75A, L78S, V103M, F104G
VL: B13 VL with Q92M, S93Q
notes: Only variable domains are tied to C2M3
- Kd [1]: 0.218 nM
- koff [1]: 0.000307 s⁻¹
- kon [1]: 1.41e+06 M⁻¹ s⁻¹

B7: C2M3 (hIgG2ΔA) (antibody, V domains shown)
VH: B4 VH with Q1E, N3Q, R5V, L48V, T75A, L78S, V103M, F104G
VL: B13 VL with Q92M, S93Q
notes: the footnote is printed with **); Only variable domains are tied to C2M3
- Kd [1]: 0.195 nM
- koff [1]: 0.000302 s⁻¹
- kon [1]: 1.55e+06 M⁻¹ s⁻¹

B8: P2E11 (antagonist IL-7R fully human monoclonal antibody, format not stated) (antibody, V domains shown)
VH: B4 VH with V103M, F104G, N105D, N106Y
VL: B4 VL with M92Q, Q93S, S96F, S97H
- IC50 (read off the curve) [2]: ~0.04 µg/mL

B9: P3A9 Fab (Fab, V domains shown)
VH: B4 VH with F56S, F57A, N105D, N106Y
VL: B4 VL with M92Q, Q93S
- Kd [1]: 204 nM
- koff [1]: 0.0114 s⁻¹
- kon [1]: 56000 M⁻¹ s⁻¹

B10: P2E11 Fab (Fab, V domains shown)
VH: B4 VH with V103M, F104G, N105D, N106Y
VL: B4 VL with M92Q, Q93S, S96F, S97H
- Kd [1]: 3 nM
- koff [1]: 0.000497 s⁻¹
- kon [1]: 155000 M⁻¹ s⁻¹
